In data set [1] the target is T1, NaPi2b expressed on IGROV-1 cells (Homo sapiens, UniProt O95436).
T1 construct: IGROV-1 cells express endogenous NaPi2b at a high level; endogenous in cells; host or cells: IGROV-1
T1 sequence (O95436 1-690): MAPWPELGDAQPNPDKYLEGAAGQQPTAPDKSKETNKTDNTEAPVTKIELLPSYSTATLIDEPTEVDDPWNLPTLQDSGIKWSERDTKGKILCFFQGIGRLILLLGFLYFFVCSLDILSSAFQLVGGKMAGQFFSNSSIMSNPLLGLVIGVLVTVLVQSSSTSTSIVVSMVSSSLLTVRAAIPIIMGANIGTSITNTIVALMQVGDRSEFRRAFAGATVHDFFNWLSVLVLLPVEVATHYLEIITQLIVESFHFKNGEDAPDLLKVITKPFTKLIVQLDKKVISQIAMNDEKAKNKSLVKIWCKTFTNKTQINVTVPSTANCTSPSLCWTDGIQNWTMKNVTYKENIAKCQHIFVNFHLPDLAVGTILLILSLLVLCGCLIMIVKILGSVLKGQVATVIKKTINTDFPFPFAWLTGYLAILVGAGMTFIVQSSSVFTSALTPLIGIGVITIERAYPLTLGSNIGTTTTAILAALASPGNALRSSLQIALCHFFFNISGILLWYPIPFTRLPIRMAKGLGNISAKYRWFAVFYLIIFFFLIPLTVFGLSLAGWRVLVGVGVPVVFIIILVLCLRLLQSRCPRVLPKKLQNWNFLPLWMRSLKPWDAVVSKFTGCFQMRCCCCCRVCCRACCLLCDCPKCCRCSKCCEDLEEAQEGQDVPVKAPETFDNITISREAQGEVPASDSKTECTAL
The data set is described as follows: Cellular binding of bivalent antibodies to IGROV-1 cells by flow cytometry (Example 13). The note with it: IGROV-1, 24 hours at 4° C., NB = no cellular binding. The procedure: IGROV-1 cells express endogenous NaPi2b at a high level.
Briefly, cells were seeded at 50,000 cells/well in conical-bottom 96-well plates and treated with test antibody for 24 hours at 4° C. to prevent internalization. Palivizumab (anti-RSV antibody, v22277) was included as a negative control. […] Following incubation, cells were washed and stained with anti-Human IgG Fc AF647 conjugate (Jackson Immuno Research Labs, West Grove, PA; Cat. No. 109-605-098) at 4° C. for 30 min. Following incubation and washing, fluorescence was detected by flow cytometry on a BD LSRFortessa™ Cell Analyzer (BD Biosciences, Franklin Lake, NJ) with 1,000 minimum events collected per well. The AF647/APC-A GeoMean (fluorescence signal geometric mean, proportional to anti-Human AF647 binding) was calculated for the live cell population using FlowJo™ Version 10.8.1 (BD Biosciences, Franklin Lake, NJ) and plotted for each test antibody using GraphPad Prism Version 9 (GraphPad Software, San Diego, CA).

The subject of the next data set is OVCAR-3 cells. Kind of data set: In vitro cytotoxicity, 2D monolayer, CellTiter-Glo, OVCAR-3. It counts as cell-based, human. The note with it: OVCAR-3, 4 days; IC = Incomplete Curve. The procedure: (§1) The cytotoxicity as measured by cell growth inhibition of the humanized variant v29456 (H1L2) conjugated to various drug-linkers were assessed in a panel of NaPi2b-expressing cell lines as described below. Cell lines used were OVCAR-3 (ovarian carcinoma), IGROV-1 (ovarian carcinoma), and HCC-78 (lung carcinoma). ADCs with antibody palivizumab (anti-RSV) (v22277) were used as non-targeted controls.
(§2) OVCAR-3 were cultured in RPMI 1640 Medium, ATCC modification (Thermo Fisher Scientific, Waltham, MA) supplemented with 20% fetal bovine serum (FBS) (Thermo Fisher Scientific, Waltham, MA) and 0.01 μg/mL human insulin (Sigma-Aldrich, Oakville, ON). […] After incubation, CellTiter-Glo® reagent (Promega Corporation, Madison, WI) was added in all wells and luminescence corresponding to ATP present in each well was measured using a Synergy™H1 plate reader (BioTek Instruments, Winooski, VT). Percent cytotoxicity values were calculated by the following formula: (1−(Luminescence of Treated Cells/Average Luminescence of Untreated Cells))×100, and plotted against test article concentration using GraphPad Prism 9 software (GraphPad Software, San Diego, CA). EC50 values were calculated based on a non-linear regression log(agonist) versus response, variable slope (four parameters) by GraphPad Prism 9.

The subject of another data set is IGROV-1 cells. Kind of data set: In vitro cytotoxicity, 2D monolayer, CellTiter-Glo, IGROV-1. It counts as cell-based, human. The note with it: IGROV-1, 4 days. The procedure: as §1, §2
The test system of the next data set is HCC-78 cells. The data set is described as follows: In vitro cytotoxicity, 2D monolayer, CellTiter-Glo, HCC-78. It counts as cell-based, human. The note with it: HCC-78, 4 days. The procedure:
as §1, §2

Data set [2] can be described thus: Thermal stability by differential scanning calorimetry (DSC). It counts as physicochemical. The note with it: 0.4 mg/mL in PBS, scan 20° C. to 100° C. at 60° C./hr. The procedure:
The thermal stability of the humanized antibody variants was assessed by differential scanning calorimetry (DSC) as described below.
400 μL of purified samples primarily at concentrations of 0.4 mg/mL in PBS were used for DSC analysis with a VP-Capillary DSC (Malvern Panalytical Inc., Westborough, MA). At the start of each DSC run, 5 buffer blank injections were performed to stabilize the baseline, and a buffer injection was placed before each sample injection for referencing. Each sample was scanned from 20° C. to 100° C. at a 60° C./hr rate, with low feedback, 8 sec filter, 3 min pre-scan thermostat, and 70 psi nitrogen pressure. The resulting thermograms were referenced and analyzed using Origin 7 software (OriginLab Corporation, Northampton, MA) to determine melting temperature (Tm) as an indicator of thermal stability.

The nature of data set [3]: Capillary isoelectric focusing (cIEF). It counts as physicochemical. The note with it: main isoform; 0.5 mg/mL. The procedure:
(§3) The isoelectric point was measured by capillary isoelectric focusing (cIEF), the propensity for self-aggregation was measured by Affinity-capture self-interaction nanoparticle spectroscopy (AC-SINS) and non-specific binding was measured by NS-ELISA, as described below.
cIEF was carried out using Maurice C. (ProteinSimple®) system, System Suitability Kit and Method Development Kit. System suitability standard, fluorescence calibration standard, cartridge and samples were prepared according to vendor's recommendations. The capillary was automatically calibrated with a fluorescence standard preconditioned with Maurice cIEF System Suitability Kit to ensure the capillary was functioning properly. The antibody samples were diluted to a concentration of 0.5 mg/mL in a final volume of 40 μL in Gibco™ Distilled Water, and mixed Maurice cIEF Method Development Kit Samples. The samples were then vortexed, centrifuged and the supernatant pipetted into individual wells of a 96-well plate. All electropherograms were detected with UV absorbance at 280 nm. All data analyses were performed using vendor software Compass for iCE (ProteinSimple®).

In the next data set the test system is ssDNA. Kind of data set: NS-ELISA non-specific binding, ssDNA. The note with it: mAb at 100 nM. The procedure:
as §3
(§4) NS-ELISA was used to measure the propensity of the antibodies to bind to a range of biomolecules to emulate the undesirable non-specific interactions to biological matrices in vivo as described below.
(§5) NS-ELISA was carried out in Corning®96-well EIA/RIA Easy Wash™ Clear Flat Bottom Polystyrene High Bind Microplate coated overnight at 4° C. with 50 μL of Heparin (Sigma, H3149) diluted with 50 mM sodium carbonate pH 9.6 to a final concentration of 250 μg/mL. The plate was incubated for 2 days at room temperature, wells that were coated with heparin were not covered to allow air dry. […] Reactions were stopped after approximately 10 minutes by adding 100 μL of 1 M HCl to each well, and absorbance was read at 450 nm. Binding scores were calculated as the ratio of the ELISA signal of the antibody (antibody-treated) to the signal of a well containing buffer instead of the primary antibody (untreated). The cutoffs considered for each binding molecule (ssDNA, KLH, insulin, dsDNA and heparin) were internally calculated, based on the average of Zymeworks Inc. produced antibodies and antibodies benchmarks published in the literature.

A further data set addresses T2, Insulin (Homo sapiens, UniProt P01308).
T2 construct: purchased Sigma-Aldrich 19278
Kind of data set: NS-ELISA non-specific binding, insulin. The note with it: mAb at 100 nM. The procedure:
as §3, §4, §5

In the next data set the test system is dsDNA. Kind of data set: NS-ELISA non-specific binding, dsDNA. The note with it: mAb at 100 nM. The procedure: as §3, §4, §5
Data set [4] is described as follows: NS-ELISA non-specific binding, heparin. The note with it: mAb at 100 nM. The procedure:
as §3, §4, §5

T2 sequence (P01308 25-54 limits assumed): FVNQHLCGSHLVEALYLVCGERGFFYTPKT
T2 sequence (P01308 90-110 limits assumed): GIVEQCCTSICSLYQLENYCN

B1: v18993-DL2 (conjugate, chains of the INN, looked up)
VH: EVQLVESGGGLVQPGGSLRLSCAASGFSFSDFAMSWVRQAPGKGLEWVATIGRVAFHTYYPDSMKGRFTISRDNSKNTLYLQMNSLRAEDTAVYYCARHRGFDVGHFDFWGQGTLVTVSS
VL: DIQMTQSPSSLSASVGDRVTITCRSSETLVHSSGNTYLEWYQQKPGKAPKLLIYRVSNRFSGVPSRFSGSGSGTDFTLTISSLQPEDFATYYCFQGSFNPLTFGQGTKVEIK
modifications: drug-linker DL2
Consider B1, for which, in data set [1], the “Bmax (MFI)” value was 39,758 MFI. For the same molecule, in data set [1], the “Curve Hill Slope (h)” value amounted to 1.1. For the same molecule, in [1] (apparent Kd), the Kd came out at 3 nM. Further, the results for the EC50 in the data set with OVCAR-3 cells, in the data set with IGROV-1 cells and in the data set with HCC-78 cells were 0.49 nM, 2.12 nM and 1.77 nM, respectively.

B2: v18993-DL1 (conjugate, chains of the INN, looked up)
VH: EVQLVESGGGLVQPGGSLRLSCAASGFSFSDFAMSWVRQAPGKGLEWVATIGRVAFHTYYPDSMKGRFTISRDNSKNTLYLQMNSLRAEDTAVYYCARHRGFDVGHFDFWGQGTLVTVSS
VL: DIQMTQSPSSLSASVGDRVTITCRSSETLVHSSGNTYLEWYQQKPGKAPKLLIYRVSNRFSGVPSRFSGSGSGTDFTLTISSLQPEDFATYYCFQGSFNPLTFGQGTKVEIK
modifications: drug-linker DL1
On to B2, for which the EC50 in the data set on IGROV-1 cells came to 3.45 nM; in the data set on HCC-78 cells it was 5.45 nM.

B3: v29452: humanized anti-NaPi2b IgG1/kappa antibody H1L3; VH SEQ ID NO:24, VL SEQ ID NO:30 (antibody, V domains shown)
VH: QVQLVQSGAEVKKPGASVKVSCKASGFTFTSYNVHWVRQAPGQGLEWMGAISPGNGDLSYAQKFQGRVTMTRDTSTSTVYMELSSLRSEDTAVYYCARGRTGMGAVDYWGQGTLVTVSS
VL: DVQMTQSPSSLSASVGDRVTITCRASQDVYSYLNWYQQKPGKAVKLLIYYTSRLQSGVPSRFSGSGSGTDYTLTISSLQPEDIATYYCQQYNIFPWTFGQGTKLEIK
modifications: v29452, v29456, v29460 VH (H1); v29449, v29450, v29451, v29452 VL (L3)
For B3, in data set [2], the “Fab Tm” value came out at 79.5 °C. For the same molecule, the “cIEF pI” value in data set [3] turned out to be 8.53. The “NS-ELISA binding score (ratio of signal between antibody-treated and untreated), ssDNA” value in the data set on ssDNA was determined as 1.22. Also, the “NS-ELISA binding score (ratio of signal between antibody-treated and untreated), Insulin” value in the data set with Insulin amounted to 1.03. Also, the “NS-ELISA binding score (ratio of signal between antibody-treated and untreated), dsDNA” value in the data set with dsDNA was 1.0. For the same molecule, the “NS-ELISA binding score (ratio of signal between antibody-treated and untreated), Heparin” value in data set [4] was 1.05. In [1], the “Bmax (MFI)” value is reported as 47,763 MFI and the “Curve Hill Slope (h)” value came to 0.9.

B4: v29450: humanized anti-NaPi2b IgG1/kappa antibody H3L3; VH SEQ ID NO:26, VL SEQ ID NO:30 (antibody, V domains shown)
VH: QVQLVQSGAEVKKPGASVKMSCKASGFTFTSYNVHWVRQAPGQGLEWIAAISPGNGDLSYAQKFQGRATLTVDTSTSTAYMELSSLRSEDTAVYYCARGRTGMGAVDYWGQGTLVTVSS
VL: DVQMTQSPSSLSASVGDRVTITCRASQDVYSYLNWYQQKPGKAVKLLIYYTSRLQSGVPSRFSGSGSGTDYTLTISSLQPEDIATYYCQQYNIFPWTFGQGTKLEIK
modifications: v29450, v29454, v29458 VH (H3); v29449, v29450, v29451, v29452 VL (L3)
Turning to B4, in [2], the “Fab Tm” value was 81.0 °C. In data set [1], the “Bmax (MFI)” value is listed as 43,809 MFI and the “Curve Hill Slope (h)” value is on record as 1.2.

The values are drawn from patent US20250277030A1, “ANTI-NAPI2B ANTIBODIES AND METHODS OF USE” (Zymeworks BC Inc., priority 2022, published 2025).
